Measurements from patent EP4806514A2 (Lepu Biopharma Co., Ltd., dated 2025).
Where a chain is given by its changes, count along the chain named.

T1: human CDH17, full length, expressed on cells (HEK293-hCDH17); AsPC-1, HCT-8, AGS, LoVo, KATO III, HT-29 tumor … (human, UniProt Q12864 23-832)
T1 construct: also called human CDH17 expressed on tumor cells
T1 sequence: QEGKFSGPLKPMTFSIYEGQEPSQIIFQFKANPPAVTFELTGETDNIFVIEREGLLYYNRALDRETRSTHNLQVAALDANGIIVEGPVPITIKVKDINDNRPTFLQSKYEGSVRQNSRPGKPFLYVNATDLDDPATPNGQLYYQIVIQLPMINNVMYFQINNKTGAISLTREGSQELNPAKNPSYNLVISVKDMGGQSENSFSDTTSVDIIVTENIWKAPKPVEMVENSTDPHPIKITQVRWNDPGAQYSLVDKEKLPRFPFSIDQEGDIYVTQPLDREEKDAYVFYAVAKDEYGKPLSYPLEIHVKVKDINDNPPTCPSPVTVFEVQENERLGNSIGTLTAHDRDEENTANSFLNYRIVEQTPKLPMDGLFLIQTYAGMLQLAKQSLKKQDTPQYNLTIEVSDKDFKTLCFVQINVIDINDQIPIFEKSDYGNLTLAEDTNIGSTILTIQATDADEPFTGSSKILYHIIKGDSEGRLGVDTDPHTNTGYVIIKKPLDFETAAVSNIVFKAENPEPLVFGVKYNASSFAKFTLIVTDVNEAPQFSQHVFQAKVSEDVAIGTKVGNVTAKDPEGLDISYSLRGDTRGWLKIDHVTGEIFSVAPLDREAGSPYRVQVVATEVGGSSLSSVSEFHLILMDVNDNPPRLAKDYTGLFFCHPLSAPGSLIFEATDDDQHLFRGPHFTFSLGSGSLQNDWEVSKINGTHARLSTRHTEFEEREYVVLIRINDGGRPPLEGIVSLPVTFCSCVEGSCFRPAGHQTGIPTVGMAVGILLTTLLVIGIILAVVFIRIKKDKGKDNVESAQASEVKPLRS

T2: human CDH16 protein (hCDH16-his, Novoprotein, Cat. No. CJ16) (human, UniProt O75309 19-786)
T2 construct: Bought; also called human CDH16-his
T2 sequence (looked up): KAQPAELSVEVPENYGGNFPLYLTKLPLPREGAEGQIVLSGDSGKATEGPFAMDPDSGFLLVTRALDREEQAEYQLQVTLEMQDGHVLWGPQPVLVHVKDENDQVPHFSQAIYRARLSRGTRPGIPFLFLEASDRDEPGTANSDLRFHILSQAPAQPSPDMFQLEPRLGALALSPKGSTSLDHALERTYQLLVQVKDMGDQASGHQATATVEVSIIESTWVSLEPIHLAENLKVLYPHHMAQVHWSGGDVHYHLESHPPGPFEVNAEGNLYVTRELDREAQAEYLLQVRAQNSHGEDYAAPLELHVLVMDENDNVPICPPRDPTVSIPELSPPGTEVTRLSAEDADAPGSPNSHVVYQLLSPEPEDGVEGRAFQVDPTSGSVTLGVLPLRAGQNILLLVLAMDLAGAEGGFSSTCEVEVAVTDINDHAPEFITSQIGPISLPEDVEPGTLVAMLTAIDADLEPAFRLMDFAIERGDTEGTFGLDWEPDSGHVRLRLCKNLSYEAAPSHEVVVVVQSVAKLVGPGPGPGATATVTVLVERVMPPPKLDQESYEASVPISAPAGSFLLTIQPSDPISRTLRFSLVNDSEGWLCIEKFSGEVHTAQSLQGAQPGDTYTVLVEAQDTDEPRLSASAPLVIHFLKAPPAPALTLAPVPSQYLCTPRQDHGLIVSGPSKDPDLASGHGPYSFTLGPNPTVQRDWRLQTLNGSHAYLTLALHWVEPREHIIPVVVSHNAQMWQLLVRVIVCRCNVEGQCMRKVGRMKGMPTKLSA

T3: hCDH17-his (full length extracellular domain of human CDH17, Q23-M787, his tag at the C-terminal) (human, UniProt Q12864 23-787)
T3 construct: Limits of the construct (UniProt Q12864, Q23-M787, C-terminal his tag); also called human CDH17-his protein; human CDH17 protein
T3 sequence: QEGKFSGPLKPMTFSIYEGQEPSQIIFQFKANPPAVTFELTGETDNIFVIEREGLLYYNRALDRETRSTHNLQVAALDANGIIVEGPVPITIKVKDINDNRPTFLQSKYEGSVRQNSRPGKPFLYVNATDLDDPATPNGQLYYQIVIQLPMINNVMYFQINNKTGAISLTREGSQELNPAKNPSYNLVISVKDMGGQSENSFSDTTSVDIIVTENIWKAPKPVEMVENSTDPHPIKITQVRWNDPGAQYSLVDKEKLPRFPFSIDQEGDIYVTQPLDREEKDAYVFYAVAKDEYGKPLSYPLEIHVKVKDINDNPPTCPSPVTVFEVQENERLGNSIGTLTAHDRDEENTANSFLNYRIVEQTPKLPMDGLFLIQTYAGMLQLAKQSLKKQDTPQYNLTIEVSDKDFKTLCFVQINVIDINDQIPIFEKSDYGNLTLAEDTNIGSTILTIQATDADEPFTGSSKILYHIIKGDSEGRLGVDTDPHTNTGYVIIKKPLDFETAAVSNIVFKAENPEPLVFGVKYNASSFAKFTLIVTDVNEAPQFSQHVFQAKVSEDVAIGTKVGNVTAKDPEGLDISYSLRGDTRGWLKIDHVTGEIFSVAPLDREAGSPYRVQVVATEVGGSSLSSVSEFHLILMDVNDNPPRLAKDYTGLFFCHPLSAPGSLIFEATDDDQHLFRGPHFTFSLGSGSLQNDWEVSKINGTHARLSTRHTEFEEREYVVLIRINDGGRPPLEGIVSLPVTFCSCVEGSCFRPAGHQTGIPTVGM

B1: 69E3H11-z12a19 (antibody, V domains shown)
VH: QVQLVQSGAEVKKPGASVKVSCKASGYTFTTYWMHWVKQAPGQRLEWIGEIDPSDSYANYNQKFKGKATLTVDKSASTAYMELSSLRSEDTAVYYCALYYGYGDWGQGTTVTVSS
VL: EIVLTQSPGTLSLSPGERATLSCSVSSSISKIHLHWYQQKPGQAPRLLIYRTSNLASGIPDRFSGSGSGTDFTLTISRLEPEDFAVYYCQQGSNLPLTFGQGTRLEIK
B2: 95F2C2F12 chimeric mAb (antibody, V domains shown)
VH: QVQLQQSGAELMKPGASVKLSCKATGYTFTGYWIEWIKQRPGHGLEWIGEILPGSGSTNYNEKFKGKATFTADTSSNTAYMELSSLTTEDSAIYYCARAGYNNWGQGTTLTVSS
VL: DIQMTQSPSSLSASLGERVSLTCRASQDIGRSVNWLQQEPDGTIKRLIYATSSLESGVPKRFSGSRSGSDYFLTISSLESEDFVDYYCLQYASSPLTFGAGTKLELK
notes: Mouse variable regions fused to human IgG1 constant region
B3: 103G6G1 chimeric mAb (antibody, V domains shown)
VH: EVKLVESEGGLVQPGSSMKLSCTASGFTFSDFYMAWVRQVPEKGLEWVANINYDSTITYYLDSLKSRFIISRDNAENILYLQMSSLKSEDTATYYCARLLYYYGSLYFDVWGTGTTVTVSS
VL: DIQMTQSPASLSASVGETVTITCRASENIYSYLAWYQQKQGKSPQLLVYDAKTLAEGVPSRFSGSGSGTQFSLKINSLQPEDFGSYYCQHHYGIPITFGAGTNLELK
notes: as for B2
B4: 69E3H11 chimeric mAb (antibody, V domains shown)
VH: QVQLQQPGAELVKPGASVKLSCKASGYTFTTYWMHWVKQRPGQGLEWIGEIDPSDSYANYNQKFKGKATLTVDKSSSTAYMQLSSLTSEDSAVYYCALYYGYGDWGQGTTLTVSS
VL: EIVLTQSPTTMAASPGEKIIITCSVSSSISSIHLHWYQQKPGFSPKLLIYRTSNLASGVPTRFSGSGSGTSYSLTIGTMEAEDVATYYCQQGSNLPLTFGAGTRLELK
notes: as for B2
B5: 29D2D7-z19p3 (antibody, V domains shown)
VH: QVQLVQSGAEVKKPGASVKVSCKASGYTFTDYDMHWVKQAPGQGLEWIGGFDPESAGTVYNLRFKDKATLTADKSTSTAYMELRSLRSEDTAVYYCARKGYYSVSSPFTYWGQGTLVTVSS
VL: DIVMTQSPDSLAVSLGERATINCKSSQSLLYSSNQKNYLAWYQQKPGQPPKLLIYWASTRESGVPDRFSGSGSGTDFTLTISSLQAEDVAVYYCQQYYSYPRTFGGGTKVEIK
notes: PTM-removed variant of 29D2D7-z19; VH is that of 29D2D7-z19
B6: 29D2D7-z19p5 (antibody, V domains shown)
VH: B5 VH
VL: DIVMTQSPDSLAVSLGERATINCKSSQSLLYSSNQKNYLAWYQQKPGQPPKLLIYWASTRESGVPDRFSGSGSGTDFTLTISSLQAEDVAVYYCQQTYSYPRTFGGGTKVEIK
notes: as for B5
B7: 29H8D3-z12p3 (antibody, V domains shown)
VH: QVQLVQSGAEVKKPGASVKVSCKASGYTFTDHTIHWMRQRPGQGLEWIGYIYPRDGYTKYNEKFKDRATLTADTSTSTAYMELRSLRSDDTAVYYCARFYYGYWYFDVWGQGTTVTVSS
VL: DIVMTQSPLSLPVTPGEPASISCRSSKSLLRSNANTYLYWFLQKPGQSPQVLIYRMSNLASGVPDRFSGSGSGTDFTLKISRVEAEDVGVYYCMQHLEYPFTFGQGTKLEIK
notes: PTM-removed variant of 29H8D3-z12
B8: 29H8D3-z12p4 (antibody, V domains shown)
VH: B7 VH with D55E
VL: B7 VL
notes: as for B7
B9: 29H8D3-z12p7 (antibody, V domains shown)
VH: B7 VH with D55E
VL: B7 VL with N35Q
notes: as for B7
B10: 29H8D3-z12p22 (antibody, V domains shown)
VH: B7 VH
VL: B7 VL with A34G, M94L
notes: PTM-removed variant of 29H8D3-z12; VH is that of 29H8D3-z12
B11: 29D2D7-z19p1 (antibody, V domains shown)
VH: B5 VH
VL: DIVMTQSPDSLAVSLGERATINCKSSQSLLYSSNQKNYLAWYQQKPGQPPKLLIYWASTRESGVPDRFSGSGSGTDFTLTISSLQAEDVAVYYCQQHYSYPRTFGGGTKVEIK
notes: PTM-removed variant of 29D2D7-z19 (VL CDR3 cysteine replaced)
B12: 29D2D7-z19p2 (antibody, V domains shown)
VH: B5 VH
VL: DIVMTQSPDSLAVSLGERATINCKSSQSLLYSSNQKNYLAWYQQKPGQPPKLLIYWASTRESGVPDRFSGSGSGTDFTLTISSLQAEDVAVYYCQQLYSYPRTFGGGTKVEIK
notes: as for B5
B13: 143H10E4-z6 (antibody, V domains shown)
VH: QVQLVQSGAEVKKPGSSVKVSCKASGSTFTDHTIHWVRQAPGQGLEWIGYIYPVYGYTQNNEKFKGRATITADKSTSTAYMELSSLRSEDTAVYYCARSRDSNPYYFDYWGQGTTVTVSS
VL: EIVLTQSPDFQSVTPKEKVTITCTVSSSISSSNLHWYQQKPDQSPKPWIYGTSNLASGVPSRFSGSGSGTDYSLTINSLEAEDAATYYCQQWSSYPFTFGQGTKLEIK
notes: Humanized, human IgG1 constant region; also called 143H10E4 HU-VH1-1 / HU-VL1-3
B14: 143H10E4-z9 (antibody, V domains shown)
VH: B13 VH with S84N
VL: B13 VL
notes: Humanized, human IgG1 constant region; also called 143H10E4 HU-VH1-2 / HU-VL1-3
B15: 143H10E4-z3 (antibody, V domains shown)
VH: B13 VH with I48M, A68V
VL: B13 VL
notes: Humanized, human IgG1 constant region; also called 143H10E4 HU-VH1-0 / HU-VL1-3

biological target: T1, human CDH17, full length, expressed on …; assay: flow cytometry, LoVo, HCT-8 and AsPC1 cells

Row | binding result | Binder
1 | binds | B1

biological target: T2, human CDH16 protein (hCDH16-his, …); assay: ELISA, hCDH16-his coated at 1 ug/mL

Row | Binder | binding result
2 | B2 | no binding (tested: titrated from 100 nM)
3 | B3 | no binding (tested: titrated from 100 nM)
4 | B4 | no binding (tested: titrated from 100 nM)

biological target: T3, hCDH17-his (full length extracellular …); assay: SPR (Biacore 8K), two doses, antibody captured on Protein A chip, hCDH17-his at 25 nM and 100 nM

Row | binding result | Binder
5 | binds | B5
6 | binds | B6
7 | binds | B1
8 | binds | B7
9 | binds | B8
10 | binds | B9
11 | binds | B10

biological target: T1, human CDH17, full length, expressed on …; assay: flow cytometry, HCT-8 cells

Row | binding result | Binder
12 | binds | B5
13 | binds | B6
14 | binds | B11
15 | binds | B12
16 | binds | B7
17 | binds | B8
18 | binds | B9
19 | binds | B10
20 | binds | B13
21 | binds | B14
22 | binds | B15

biological target: T1, human CDH17, full length, expressed on …; assay: flow cytometry, HEK293-hCDH17 cells

Row | binding result | Binder
23 | binds | B2
24 | binds | B3
25 | binds | B4

biological target: T3, hCDH17-his (full length extracellular …); assay: SPR (Biacore 8K), antibody captured on Protein A chip, hCDH17-his injected

Row | binding result | Binder
26 | binds | B2
27 | binds | B3
28 | binds | B4
29 | binds | B13
30 | binds | B14
31 | binds | B15
